According to US12447133B2, “Composition and device for preventing hypoglycemia and use thereof” (THE GOVERNING COUNCIL OF THE UNIVERSITY OF TORONTO, priority 2018, dated 2025):

How the values were obtained:
[1] = Stability of released glucagon (far-UV CD and RP-HPLC); type: physicochemical
Description: The effect of glucose concentration on microgel size was characterized using dynamic light scattering (DLS, Malvern Zetasizer Nano-ZS). Adjustment of pH was made using NaOH or HCl. Dimensions and surface morphology of freeze-dried microgels were examined by scanning electron microscopy (SEM/EDX) at an acceleration voltage of 20 kV. Transmission electron microscopy (TEM) images were performed on a Hitachi H-7500 transmission electron microscope operated at 80 kV. In addition, Rhodamine-B (Rh-B) labelling was applied to track the distribution of microgels within the microneedle array. The microgels were first immersed in 10 μg/mL of Rh-B for 12 hours at room temperature and then washed with DI-water three times. […] Glucagon and its degradation products were assayed using a reversed-phase high-performance liquid chromatography (RP-HPLC) system (Waters, MA, USA) equipped with a binary pump, autosampler, and UV detector (2899 Photodiode Detector Array, Waters, MA, USA). ^1H-NMR, and ^11B-NMR spectra were recorded in dimethyl sulfoxide (DMSO) and deuterium oxide (D2O) with a Bruker AM 400 spectrometer (400 MHz). […] Glucagon released from microgels or MNs were collected and measured using a CD spectropolarimeter (Jasco J-810, MD, USA) equipped with a Peltier temperature module set to 25° C. […]

[2] = system: STZ-induced type 1 diabetic male Sprague Dawley rats; assay: Antidiabetic effect of S.C. microgel injection in type 1 diabetic rats; type: in vivo, rat
Description: Male Sprague Dawley rats (Charles River) were treated with 65 mg/kg streptozotocin (STZ) to induce type 1 diabetes. The rats receiving STZ were carefully monitored for 1 week during which time the blood sugar was measured in 2 day intervals using a glucose meter (OneTouch® Ultra®, LifeScan, Inc., USA). Diabetic rats with blood sugar stabilized above 17 mmol/L were selected for the study. All rats were fasted for 4 hours prior to the experiment to eliminate the possible confounding effect of food (BERNICE […], 1965). The blood glucose levels of the diabetic rats were monitored every 15 minutes throughout the experiment. […] The blood glucose levels were measured every 15 min after injection and stopped whenever they were above/bellow euglycemia threshold.

| Substance | secondary structure of released glucagon (far-UV CD, peaks at 208 and 222 nm) ([1]; released at 50 mg/dL glucose, compared to fresh native glucagon) | degradation products of released glucagon (RP-HPLC) ([1]; released from composite patch, compared to fresh glucagon) | time after which blood glucose increased back to hyperglycemia ([2]; 0.5 IU/kg insulin S.C.) [h] | occurrence of hypoglycemia ([2]; 1 IU/kg insulin S.C.) | time to reach euglycemia post-injection ([2]; 1 IU/kg insulin S.C.) [min] |
| --- | --- | --- | --- | --- | --- |
| glucagon | preserved | no detectable degradants | – | – | – |
| insulin | – | – | 3 | fell even further below the hypoglycemic threshold | ≤ 45 |
